The target in this assay is SARS-CoV-2 spike trimer (S trimer), soluble ectodomain (SARS-CoV-2), P0DTC2. Kind of assay: cryo-EM structure of Fab 2-4 with S trimer. Conditions: remark: other sources report otherwise.

B1: Fab of antibody 2-4 (Fab, V domains shown)
VH: QVQLVQSGAEVKKPGASVKVSCKASGYTFTGYYMHWVRQAPGQGLEWMGWINPNSGGTNYTQMFQGRVTMTRDTSISTAYMEVSRLRSDDTAVYYCARDRSWAVVYYYMDVWGKGTTVTVSS
VL: QSALTQPPSASGSPGQSVTISCTGTSSDVGGYNYVSWYQQHPGKAPKLMIYEVSKRPSGVPDRFSGSKSGNTASLTVSGLQAEDEADYYCSSYAGSNNLVFGGGTKLTVL
Consider B1, for which the buried surface area of the epitope on RBD worked out at 751 A2.

The values are drawn from US20230203138A1.
